B1: RNase 1: commercial enzyme reagent from Ambion, tested for RNase activity (protein, UniProt P21338 24-268, looked up)
Ribonuclease I: LALQAKQYGDFDRYVLALSWQTGFCQSQHDRNRNERDECRLQTETTNKADFLTVHGLWPGLPKSVAARGVDERRWMRFGCATRPIPNLPEARASRMCSSPETGLSLETAAKLSEVMPGAGGRSCLERYEYAKHGACFGFDPDAYFGTMVRLNQEIKESEAGKFLADNYGKTVSRRDFDAAFAKSWGKENVKAVKLTCQGNPAYLTEIQISIKADAINAPLSANSFLPQPHPGNCGKTFVIDKAGY
B2: RNase A: commercial enzyme reagent from Ambion, tested for RNase activity (protein, UniProt P61823 27-150, looked up)
Ribonuclease pancreatic: KETAAAKFERQHMDSSTSAASSSNYCNQMMKSRNLTKDRCKPVNTFVHESLADVQAVCSQKNVACKNGQTNCYQSYSTMSITDCRETGSSKYPNCAYKTTQANKHIIVACEGNPYVPVHFDASV
B3: Bam HI: commercial enzyme from New England Biolabs, sold as RNase-free (protein, UniProt P23940 1-213, looked up)
Type II restriction enzyme …: MEVEKEFITDEAKELLSKDKLIQQAYNEVKTSICSPIWPATSKTFTINNTEKNCNGVVPIKELCYTLLEDTYNWYREKPLDILKLEKKKGGPIDVYKEFIENSELKRVGMEFETGNISSAHRSMNKLLLGLKHGEIDLAIILMPIKQLAYYLTDRVTNFEELEPYFELTEGQPFIFIGFNAEAYNSNVPLIPKGSDGMSKRSIKKWKDKVENK
B4: RNase T1: commercial enzyme reagent from Ambion, tested for RNase activity (protein, UniProt P00651 27-130, looked up)
Guanyl-specific ribonuclease …: ACDYTCGSNCYSSSDVSTAQAAGYQLHEDGETVGSNSYPHKYNNYEGFDFSVSSPYYEWPILSSGDVYSGGSPGADRVVFNENNQLAGVITHTGASGNNFVECT
B5: Proteinase K: commercial enzyme reagent from Ambion, sold as RNase-free (protein, UniProt P06873 106-384, looked up)
Proteinase K: AAQTNAPWGLARISSTSPGTSTYYYDESAGQGSCVYVIDTGIEASHPEFEGRAQMVKTYYYSSRDGNGHGTHCAGTVGSRTYGVAKKTQLFGVKVLDDNGSGQYSTIIAGMDFVASDKNNRNCPKGVVASLSLGGGYSSSVNSAAARLQSSGVMVAVAAGNNNADARNYSPASEPSVCTVGASDRYDRRSSFSNYGSVLDIFGPGTSILSTWIGGSTRSISGTSMATPHVAGLAAYLMTLGKTTAASACRYIADTANKGDLSNIPFGTVNLLAYNNYQA

These molecules were tested on Substrate oligonucleotide SEQ ID NO:30 (assay: RNase testing of commercially obtained reagents, visual detection). Conditions: reagent diluted 1:10 with Assay Buffer, 50 pmoles Substrate SEQ ID NO:30, 60 minutes at 37° C., UV.
Format: biochemical
Set-up: key: +++ = maximum intensity; ++ = moderate intensity; + = faint but above background; − = negative (identical to background)
Procedure: Enzymes were obtained from New England Biolabs (NEB) or Ambion as indicated. Test sample (10 ul) was mixed with 1× buffer (90 ul) for a final volume of 100 ul with 50 pmoles of Substrate SEQ ID NO:30 in 0.5 ml RNase-free microtubes. Assay Mixes were incubated 60 minutes at 37° C. and visually examined under UV excitation for fluorescence emission. After scoring for results, 1 ul (1 ug) of RNase A was added to each tube. The Assay was incubated an additional 5 minutes at 37° C. and re-scored. The addition of RNase A represents a control for the absence of an Assay inhibitor and validates negative results. The “plus RNase A” control was omitted whenever the primary assay was already positive.
Table 9: RNase testing of commercially available reagents. A series of commercially available reagents were diluted 1:10 with Assay Buffer to a final volume of 100 ul. An RNase detection assay was performed using the method of the invention with Substrate oligonucleotide SEQ ID NO:30. Reactions were examined for fluorescence emission by visual inspection using an ultraviolet (UV) light source for excitation. Results were scored as +++, ++, +, or − based on relative signal intensity. As a control, RNase A (1 ug) was added to negative reactions and the Assay was re-scored. ND=not done.

Molecule | Assay Results (RNase activity in reagent, relative signal intensity)
B1 | +++
B2 | +++
B3 | −
B4 | +++
B5 | −

Source: US7276337B2, “Compositions and methods for visual ribonuclease detection assays” (Integrated DNA Technologies, Inc., priority 2000, dated 2007)
